From paper PMC5494190, “Structure of the Rpn13-Rpn2 complex provides insights for Rpn13 and Uch37 as anticancer targets” (Nature Communications, 2017)
Values belong to the binder of their own block, whether it stands above or below them. No end group written: not given here. *: point of attachment. FITC‑N3 = fluorescein azide; Pent4ynoyl = C#CCCC(=O)*; AEEA = NCCOCCOCC(=O)O

How the values were obtained:
full-length hRpn13 = molecular target: T1, full-length hRpn13 (human, UniProt Q16186 1-407); assay: fluorescence polarisation; 10 nM FITC-hRpn2 (940–953) with serially diluted full-length hRpn13; 20 mM sodium phosphate, 50 mM NaCl, pH 6.5; room temperature, 30 min; Hill slope model; also with 100 μM RA190 or 2% DMSO; settings: both partners purified
T1 construct: hRpn13/Adrm1, human, full-length protein (Pru and DEUBAD domains); The preparation of the full-length protein is not described; it was not held on Talon resin by itself in the pull-down, so it probably carried no His tag; also called hRpn13 full-length protein; Adrm1; source: purified recombinant protein

[1] = molecular target: T2, hRpn13 (1–150), which includes the Pru domain (human, UniProt Q16186 1-150); assay: ITC; 25 °C; 200 μM hRpn2 peptide injected into 20 μM or 18 μM hRpn13 Pru in the cell; 20 mM sodium phosphate, 50 mM NaCl, 10 mM βME, pH 7.0; one-site fit; settings: both partners purified
T2 construct: hRpn13/Adrm1, human, residues M1-L150 (Pru domain; N-terminal 19 and C-terminal 20 residues randomly coiled); Isotope-labelled (15N, 13C) in some NMR samples; also called hRpn13 Pru; hRpn13 Pru (1–150); not shown: His tag, N-terminal, cleaved
T2 sequence (Q16186 1-150): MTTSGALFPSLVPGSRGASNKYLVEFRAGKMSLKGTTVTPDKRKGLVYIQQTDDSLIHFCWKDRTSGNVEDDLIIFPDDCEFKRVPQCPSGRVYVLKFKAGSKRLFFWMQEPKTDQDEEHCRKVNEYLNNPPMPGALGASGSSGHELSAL

T1 sequence (Q16186 whole entry, the tested form may be a part): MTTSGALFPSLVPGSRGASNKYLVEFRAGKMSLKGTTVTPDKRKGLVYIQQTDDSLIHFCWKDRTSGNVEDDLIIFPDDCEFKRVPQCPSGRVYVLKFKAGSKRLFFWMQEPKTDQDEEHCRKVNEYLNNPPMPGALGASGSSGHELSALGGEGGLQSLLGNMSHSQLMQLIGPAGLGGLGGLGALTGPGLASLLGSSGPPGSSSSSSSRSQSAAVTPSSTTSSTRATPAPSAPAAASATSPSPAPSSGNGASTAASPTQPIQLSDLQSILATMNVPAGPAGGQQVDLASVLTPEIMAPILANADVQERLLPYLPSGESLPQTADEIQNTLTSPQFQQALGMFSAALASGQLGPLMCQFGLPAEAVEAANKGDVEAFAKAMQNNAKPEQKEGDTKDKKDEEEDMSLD

Kd (full-length hRpn13): 14.7 nM
B1: FITC-hRpn2 (940–953) (peptide)
peptide: {FITC‑N3-Pent4ynoyl-AEEA}-QEPEPPEPFEYIDD
notes: also called FITC-labelled hRpn2 probe; source: synthetic peptide (Fmoc solid-phase synthesis, click coupling to FITC-N3, HPLC purified)

Kd [1]: 27 ± 10 nM
B2: hRpn2 (940–953) (peptide)
chain: QEPEPPEPFEYIDD
notes: The author contributions say that peptides were synthesized for the DSF experiment, so the DSF sample may be a synthetic peptide of the same limits; also called hRpn2 peptide; hRpn2 fragment; source: E. coli BL21(DE3) pLysS, purified (Glutathione S-sepharose 4B, PreScission cleavage, Superdex75); not shown: GST, N-terminal, cleaved

Kd [1]: 1960 ± 220 nM
B3: hRpn2 (944–953) (peptide)
peptide: PPEPFEYIDD
notes: source: synthetic peptide (Fmoc chemistry on Wang resin, HPLC purified)
